Article PMC10411744 (PLOS Pathogens, 2023)

Legend:
[1] = target: X31 (H3N2) trimeric full-length HA (prefusion stabilized HA) (influenza A virus X31 (H3N2), biotin (biotinylated for capture on streptavidin)); test: ELISA; settings: both partners purified
HA of H1 A/Narita/1/2009 = HA of H1 A/Narita/1/2009 (influenza A virus A/Narita/1/2009 (H1)); test: ELISA; settings: both partners purified

Binder	binding result [1]	binding result (HA of H1 A/Narita/1/2009)
LAH31 with light chain position 92 reverted to germline (R92L) (antibody, V domains shown, IgG1) VH: QVQLEQSGAEVKKPGSSVKVSCKASGPMFSRSAFSWVRQAPGQGLEWMGRIIPTVDLKNYAQKFQGRVTFTADKSTATSYMELRSLKSEDTAVYYCARMGSGSSYYGMDVWGLGTTVTVSS VL: DIVMTQSPLSLPVIPGEPASISCRSSQSLLQSNGNNYLDWYLQKPGQSPQLLIYLGSNRASGVPDRFSGSGSGTDFTLTISRVEAEDVGVYYCLQALQSSVLTFGGGTKLEIK	binds	–
LAH31 with light chain position 95 reverted to germline (Ser95 to Pro95) (antibody, V domains shown) VH: QVQLEQSGAEVKKPGSSVKVSCKASGPMFSRSAFSWVRQAPGQGLEWMGRIIPTVDLKNYAQKFQGRVTFTADKSTATSYMELRSLKSEDTAVYYCARMGSGSSYYGMDVWGLGTTVTVSS VL: DIVMTQSPLSLPVIPGEPASISCRSSQSLLQSNGNNYLDWYLQKPGQSPQLLIYLGSNRASGVPDRFSGSGSGTDFTLTISRVEAEDVGVYYCLQARQSPVLTFGGGTKLEIK	binds	binds
LAH31 with light chain position 94 reverted to germline (Ser94 to Thr94) (antibody, V domains shown) VH: QVQLEQSGAEVKKPGSSVKVSCKASGPMFSRSAFSWVRQAPGQGLEWMGRIIPTVDLKNYAQKFQGRVTFTADKSTATSYMELRSLKSEDTAVYYCARMGSGSSYYGMDVWGLGTTVTVSS VL: DIVMTQSPLSLPVIPGEPASISCRSSQSLLQSNGNNYLDWYLQKPGQSPQLLIYLGSNRASGVPDRFSGSGSGTDFTLTISRVEAEDVGVYYCLQARQTSVLTFGGGTKLEIK	binds	binds
LAH31 mouse IgG2c LALA mutant (antibody, V domains shown) VH: QVQLEQSGAEVKKPGSSVKVSCKASGPMFSRSAFSWVRQAPGQGLEWMGRIIPTVDLKNYAQKFQGRVTFTADKSTATSYMELRSLKSEDTAVYYCARMGSGSSYYGMDVWGLGTTVTVSS VL: DIVMTQSPLSLPVIPGEPASISCRSSQSLLQSNGNNYLDWYLQKPGQSPQLLIYLGSNRASGVPDRFSGSGSGTDFTLTISRVEAEDVGVYYCLQARQSSVLTFGGGTKLEIK	binds	–
LAH31 mouse IgG2c LALA-PG mutant (antibody, V domains shown) VH: QVQLEQSGAEVKKPGSSVKVSCKASGPMFSRSAFSWVRQAPGQGLEWMGRIIPTVDLKNYAQKFQGRVTFTADKSTATSYMELRSLKSEDTAVYYCARMGSGSSYYGMDVWGLGTTVTVSS VL: DIVMTQSPLSLPVIPGEPASISCRSSQSLLQSNGNNYLDWYLQKPGQSPQLLIYLGSNRASGVPDRFSGSGSGTDFTLTISRVEAEDVGVYYCLQARQSSVLTFGGGTKLEIK	binds	–
LAH31 mouse IgG2c KA mutant (antibody, V domains shown) VH: QVQLEQSGAEVKKPGSSVKVSCKASGPMFSRSAFSWVRQAPGQGLEWMGRIIPTVDLKNYAQKFQGRVTFTADKSTATSYMELRSLKSEDTAVYYCARMGSGSSYYGMDVWGLGTTVTVSS VL: DIVMTQSPLSLPVIPGEPASISCRSSQSLLQSNGNNYLDWYLQKPGQSPQLLIYLGSNRASGVPDRFSGSGSGTDFTLTISRVEAEDVGVYYCLQARQSSVLTFGGGTKLEIK	binds	–
